Assay results taken from doi:10.1101/2022.01.19.477021, “The Intrinsically Disordered Region of Coronins Fine-tunes Oligomerization and Actin Polymerization” (bioRxiv, 2022).
“And” between values parts separate entries of the source, which are not always exact repeats. Equal entries are not always repeated.

B1: Crn1 full-length (Crn1-FL), recombinant from E. coli (natural protein, S. cerevisiae, UniProt Q06440 1-651, looked up)
chain: MSGKFVRASKYRHVFGQAAKKELQYEKLKVTNNAWDSNLLKTNGKFIAVNWNASGGGAFAVIPIEEVGKAPDQVPLFRGHTAQVLDTDFDPFNDHRIASGSDDSKIGIWDIPENYKFHDHVDEDGEPIDIKPVKFLTGHARKVGHVLYHPVAENVLASSSGDYTVKLWNVETGKDMITLKHPDMVTSMSFSYDGNYLATVARDKKLRVWNIREEKIVSEGPAHTGAKNQRVVWLGNSDRLATTGFSKLSDRQIGIWDAFNIEKGDLGGFYTVDQSSGILMPFYDEGNKILYLVGKGDGNIRYYEFQNDELFELSEFQSTEAQRGFAVAPKRMVNVKENEVLKGFKTVVDQRIEPVSFFVPRRSEEFQEDIYPDAPSNKPALTAEEWFSGKSVEGPILVSMRSIYDGSAPSFHEAKRPQQPTTQETALEEKKEQPKVEKPISESEKEVKQEAPKSPSPLKSASSSSTINHVLKEDNSINKLLKKSSDIDQVNNAEDPSRDTSGWEEADDEPAPIKIETPVTPTETKKDRTPKVEPSKELKPEPVSIATDRKQEQSLPQEEKSSEKTKSPEQEKSATPPSSITAAKTAITASSKEEPSAARTSPKSLGLKKSVEKLSTLVLQLEDVVDKLTKANLDKDERLLKLEQKIGELSK
notes: Crn1 (coronin), S. cerevisiae, residues 1-651; Vector pET-21d(+)(pSY5) adds an 8x histidine tag and an HRV 3C protease site at the N-terminus; cleavage is not described; By AUC-SV a mix of monomers and tetramers; also called WT Crn1; source: E. coli Rosetta (DE3), purified (HisTrap, SEC when necessary)
B2: yeast purified full-length Crn1 (yCrn1-FL) (natural protein, S. cerevisiae, UniProt Q06440 1-651, looked up)
chain: B1 chain
notes: Crn1 (coronin), S. cerevisiae, full length; The text says C-terminal 6xHis-tagged, but names the vector as pGAL-ORF-3×StreptagII-9×His; source: S. cerevisiae (strain YMY2043, galactose-induced overexpression), purified (HisTrap)
B3: Crn1ΔIDR-S (Crn1 with a short 40-aa middle fragment of the IDR) (natural protein, S. cerevisiae, UniProt Q06440 1-651, looked up)
chain: MSGKFVRASKYRHVFGQAAKKELQYEKLKVTNNAWDSNLLKTNGKFIAVNWNASGGGAFAVIPIEEVGKAPDQVPLFRGHTAQVLDTDFDPFNDHRIASGSDDSKIGIWDIPENYKFHDHVDEDGEPIDIKPVKFLTGHARKVGHVLYHPVAENVLASSSGDYTVKLWNVETGKDMITLKHPDMVTSMSFSYDGNYLATVARDKKLRVWNIREEKIVSEGPAHTGAKNQRVVWLGNSDRLATTGFSKLSDRQIGIWDAFNIEKGDLGGFYTVDQSSGILMPFYDEGNKILYLVGKGDGNIRYYEFQNDELFELSEFQSTEAQRGFAVAPKRMVNVKENEVLKGFKTVVDQRIEPVSFFVPRRSEEFQEDIYPDAPSNKPALTAEEWFSGKSVEGPILVSMSSDIDQVNNAEDPSRDTSGWEEADDEPAPIKIETPVTPTEPKSLGLKKSVEKLSTLVLQLEDVVDKLTKANLDKDERLLKLEQKIGELSK
notes: Crn1 (coronin), S. cerevisiae, residues 1-651 with 401-483 and 524-601 excluded by a two-step truncation of the full-length plasmid; short IDR 484-523 kept; By the stated limits residues 602-604 of the IDR stay in the construct; source: E. coli Rosetta (DE3), purified (HisTrap, SEC when necessary)
B4: Crn1-ΔIDR (Crn1 lacking the IDR, aa 401-604) (natural protein, S. cerevisiae, UniProt Q06440 1-651, looked up)
chain: MSGKFVRASKYRHVFGQAAKKELQYEKLKVTNNAWDSNLLKTNGKFIAVNWNASGGGAFAVIPIEEVGKAPDQVPLFRGHTAQVLDTDFDPFNDHRIASGSDDSKIGIWDIPENYKFHDHVDEDGEPIDIKPVKFLTGHARKVGHVLYHPVAENVLASSSGDYTVKLWNVETGKDMITLKHPDMVTSMSFSYDGNYLATVARDKKLRVWNIREEKIVSEGPAHTGAKNQRVVWLGNSDRLATTGFSKLSDRQIGIWDAFNIEKGDLGGFYTVDQSSGILMPFYDEGNKILYLVGKGDGNIRYYEFQNDELFELSEFQSTEAQRGFAVAPKRMVNVKENEVLKGFKTVVDQRIEPVSFFVPRRSEEFQEDIYPDAPSNKPALTAEEWFSGKSVEGPILVSMLGLKKSVEKLSTLVLQLEDVVDKLTKANLDKDERLLKLEQKIGELSK
notes: Crn1 (coronin), S. cerevisiae, residues 1-651 with the IDR (401-604) deleted; made from the pSY5-Crn1-FL plasmid; source: E. coli Rosetta (DE3), purified (HisTrap, SEC when necessary)
B5: Crn1-CC (C-terminal coiled-coil domain, aa 605-651) (domain or fragment, S. cerevisiae, UniProt Q06440 605-651, looked up)
chain: LGLKKSVEKLSTLVLQLEDVVDKLTKANLDKDERLLKLEQKIGELSK
notes: Crn1 (coronin), S. cerevisiae, residues 605-651, coiled-coil domain; made by truncating 401-604 from the Crn1-ΔN (401-651) plasmid; The introduction gives the CC domain as aa 600-651; also called CC domain; source: E. coli Rosetta (DE3), purified (HisTrap, SEC when necessary)
B6: Crn1-ΔN (IDR and CC domains, aa 401-651) (domain or fragment, S. cerevisiae, UniProt Q06440 401-651, looked up)
chain: RSIYDGSAPSFHEAKRPQQPTTQETALEEKKEQPKVEKPISESEKEVKQEAPKSPSPLKSASSSSTINHVLKEDNSINKLLKKSSDIDQVNNAEDPSRDTSGWEEADDEPAPIKIETPVTPTETKKDRTPKVEPSKELKPEPVSIATDRKQEQSLPQEEKSSEKTKSPEQEKSATPPSSITAAKTAITASSKEEPSAARTSPKSLGLKKSVEKLSTLVLQLEDVVDKLTKANLDKDERLLKLEQKIGELSK
notes: Crn1 (coronin), S. cerevisiae, residues 401-651 (IDR and CC domain); source: E. coli Rosetta (DE3), purified (HisTrap, SEC when necessary)

How the values were obtained:
[1] = target: the molecule itself; test: AUC; sedimentation velocity; 50 mM Tris pH 8.0, 150 mM NaCl, 20 °C, 30,000 or 45,000 rpm; c(s) and c(s,ff0) models in SEDFIT; samples at 3-9.2 µM
[2] = target: rabbit skeletal muscle actin (RMA), filamentous (F-actin) (rabbit, UniProt P68135 1-377); test: co-sedimentation; high-speed actin cosedimentation: a range of concentrations of Crn1 variant with a fixed concentration of pre-polymerized actin filaments in F-buffer, room temperature 30 min, 100,000 x g 20 min at 25°C; bound against free coronin fitted with the Hill equation; conditions: both partners purified
[3] = target: the molecule itself; test: SEC + other: negative-stain transmission electron microscopy; Superdex 200 increase 10/30 column in a pH 8 Tris-buffer with 150 mM NaCl; TEM of 1 µM protein in F-buffer

Row | Binder | stoichiometry N [1] | Kd [2] [nM] | binding result [3]
1 | B1 | 4 | 240 | 
2 | B2 | 4 and 6 |  | 
3 | B3 | 3 and 6 |  | 
4 | B4 |  |  | binds
5 | B5 | ~15 |  | 
6 | B6 | 4 |  | 
